According to article PMC6048055, “O2-inducible H2O2-forming NADPH oxidase is responsible for the hyper O2 sensitivity of Bifidobacterium longum subsp. infantis” (Scientific Reports, 2018):

Key:
NADPH oxidase (NPOX) = molecular target: T1, NADPH oxidase (NPOX) (Bifidobacterium longum, UniProt A0ACD7UUP8); assay: HPLC of flavin extracted from purified enzyme; UV-Vis spectrum; format: binding; conditions: co-purified bound flavin, flavoprotein absorbance maxima […] nm
T1 construct: gene Blon_2447; native enzyme purified from B. infantis cells; 254 residues; 29 kDa by SDS-PAGE
T1 sequence (A0ACD7UUP8 52-305): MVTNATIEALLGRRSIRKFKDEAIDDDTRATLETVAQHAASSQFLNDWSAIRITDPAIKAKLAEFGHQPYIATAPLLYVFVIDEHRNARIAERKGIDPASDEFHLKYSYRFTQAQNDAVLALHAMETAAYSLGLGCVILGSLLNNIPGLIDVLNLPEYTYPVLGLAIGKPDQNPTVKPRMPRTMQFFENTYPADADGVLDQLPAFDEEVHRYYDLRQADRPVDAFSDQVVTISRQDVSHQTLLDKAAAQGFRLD

[1] = test system: NC(=O)C1=CN([C@@H]2O[C@H](COP(=O)(O)OP(=O)(O)OC[C@H]3O[C@@H](n4cnc5c(N)ncnc54)[C@H](OP(=O)(O)O)[C@@H]3O)[C@@H](O)[C@H]2O)C=CC1; assay: purified protein; conditions: O2 as electron acceptor (air saturated), 50 mM potassium phosphate pH 6.5, 37 °C, apparent Km
[2] = test system: NC(=O)C1=CN([C@@H]2O[C@H](COP(=O)(O)OP(=O)(O)OC[C@H]3O[C@@H](n4cnc5c(N)ncnc54)[C@H](O)[C@@H]3O)[C@@H](O)[C@H]2O)C=CC1; assay: purified protein; conditions: O2 as electron acceptor (air saturated), 50 mM potassium phosphate pH 6.5, 37 °C, apparent Km

| Compound | HPLC of flavin extracted from purified enzyme; UV-Vis spectrum (NADPH oxidase (NPOX)) | Km [1] [µM] | Km [2] [µM] |
| --- | --- | --- | --- |
| Cc1cc2nc3c(=O)[nH]c(=O)nc-3n(C[C@H](O)[C@H](O)[C@H](O)COP(=O)(O)O)c2cc1C [FMN] | The bound flavin was identified as FMN by HPLC analysis |  |  |
| NADPH oxidase (NPOX) (Bifidobacterium longum subsp. infantis ATCC 15697 = JCM 1222 = DSM 20088) |  | 1.38 ± 0.12 | 113.3 ± 7.3 |
